# In patent US20220211860A1, “PEPTIDE DERIVATIVES AND CONJUGATES THEREOF FOR TREATING CANCER” (priority 2019, published 2022):
# Tests used:
# female NOD/SCID mice = experiment: Phase I: single-dose MTD in mice; assay type: in vivo; details: for Body Weight: individual animals
# Method: LD5-(mc-vc-PABC)-MMAE was administered IV to groups of 3 female NOD/SCID mice (23±3 g). Animals received an initial dose of 3 mg/kg. If the animals survived for 72 hours, the dose for the next cohort was increased. If one or more animals died, the dose for the next cohort was decreased. The testing stopped when all animals survived at the upper bound, or when two or three dose levels had been tested or when the upper or lower bound had been reached. […] Body weights were recorded pre-dose and at 72 hours after treatment. The animals were observed and mortality noted daily after compound administration for 3 days. Gross necropsy was performed on all animals without tissue collection. […] No mortality and body weight changes were noted, signifying the dose level was tolerated (Tables 2 and 3). The dose at 10 mg/kg was then determined for the following repeat-dose MTD study (Phase II).
# MDA-MB-231 [1] = experiment: Receptor binding competitive assay (triptorelin pre-treatment, MTT); assay type: cell-based, human; details: MDA-MB-231 pre-treated with 100 µM of triptorelin (TRN) for 2 h
# Method: FIGS. 5A and 5B: Receptor binding competitive assay. MDA-MB-231 was pre-treated with triptorelin (TRN) and LM (LD5-mc-vc-PABC-MMAE) then the MTT assay was performed. (A) The IC50 value (nM) was calculated by non-linear regression (curve fit) for PC-3 and MDA-MB-231 with and without pre-treatment with triptorelin. (B) The cell viability in TRN-LM was assessed in comparison to LM in MDA-MB-231 (TNBC cell line). The cytotoxic effects of LM is reversed after pre-treatment with triptorelin indicating a significant role of LHRH-Rs in the mechanism of action of LM. Two-way ANOVA was performed followed by Sidak's multiple comparisons test (***p<0.00001). Error bars are standard deviations (STDV), n=8 (3 independent repeats).
# Receptor binding competitive assay was performed to examine the association of cytotoxicity with binding to LHRH-Rs. TNBC cells (MDA-MB-231) were pre-treated with 100 µM of triptorelin (TRN) for 2 h to block the LHRH-R. The significant cytotoxic effects of LD5-mc-vc-PABC-MMAE (LM) was reversed after pre-treatment with TRN (FIGS. 5A and 5B).
# [2] = In vitro metabolic stability (release of free MMAE, LC/MS), human plasma; assay type: in vitro ADME; details: 1 μM, 37° C., 10 days
# Method: FIG. 11: Stability of LHRHD-(mc-vc-PABC)-MMAE (i.e. LD5-mc-vc-PABC-MMAE) in human plasma, mouse plasma, and cell culture media (c-media). The stability was measured based on the presence of free MMAE detected in the samples by LC-MS at each time point relative to time 0. Error Bars are standard deviations (STDV), p>0.05 and n=9 (mean is calculated from samples in triplicate in 3 independent experiments).
# The metabolic stability of LD5-(mc-vc-PABC)-MMAE was investigated in cell culture media (c-media), human and mouse plasma. An LC/MS method was developed to detect both free MMAE and the presence of any degraded species from the whole construct, LD5-(mc-vc-PABC)-MMAE. To evaluate the stability of the valine-citrulline linkage, LD5-(mc-vc-PABC)-MMAE at 1 μM was incubated in c-media, human and mouse plasma at 37° C. for a period of 10 days. Aliquots were taken at pre-determined time intervals (t=0, 1, 2, 4, 7, 10 days) and analysed by LC/MS for the release of free MMAE.
# MDA-MB-231 [3] = experiment: Uptake after silencing LHRH-R gene in MDA-MB-231; assay type: cell-based, human; details: MDA-MB-231, LHRH-R siRNA, 1 μM, 18 h
# Method: FIGS. 10A and 10B: Uptake of LD5-me-vc-PABC-MMAE (LM) after silencing LHRH-R in MDA-MB-231 cells. The cells were treated with LHRH-R siRNA and co-transfected with fluorescent labelled siRNA negative control as transfection efficiency signal (FAM-transfection control). LHRH-R negative control refers to MDA-MB-231 cells that were not transfected with LHRH-R siRNA and FAM-transfection control. (A) Silenced LHRH-R cells and negative control cells were treated with LM (1 μM) for 18 h and LM signal was detected by immunocytochemistry with specific LHRH binding of primary antibody labelled by Rhodamine-conjugated secondary antibody. Immunocytochemical images were captured by LEICA SPE2 confocal LSM. (B) The LM signal intensity in both silenced LHRH-R and negative control was measured by Fiji J software. […] The data was analysed by unpaired t-test with Welch's correction (**** p<0.0001). Error bars are standard deviations (STDV), n=8 (3 independent repeats).
# To further examine the role of LHRH-R in the uptake of LD5-me-vc-PABC-MMAE, LHRH-R expression was blocked by silencing their gene in MDA-MB-231 (TNBC cell model). This study was performed by co-transfection of siRNAs (RNAi-Mate transfection reagent and siRNA, GNRHR-homo-2242, GNRHR-homo-2701, and scrambled RNA were from GenePharma) and a fluorescently labelled negative control siRNA (FAM transfection efficiency control was from GenePharma).
structure (smiles),measurement,setting,value
CCNC(=O)[C@@H]1CCCN1C(=O)[C@H](CCCNC(=N)N)NC(=O)[C@H](CC(C)C)NC(=O)[C@@H](CCCCNC1CC(=O)N(CCCCCC(=O)N[C@H](C(=O)N[C@@H](CCCNC(N)=O)C(=O)Nc2ccc(COC(=O)N(C)[C@H](C(=O)N[C@H](C(=O)N(C)[C@@H]([C@@H](C)CC)[C@@H](CC(=O)N3CCC[C@H]3[C@H](OC)[C@@H](C)C(=O)N[C@H](C)[C@@H](O)c3ccccc3)OC)C(C)C)C(C)C)cc2)C(C)C)C1=O)NC(=O)[C@H](Cc1ccc(O)cc1)NC(=O)[C@H](CO)NC(=O)[C@H](Cc1c[nH]c2ccccc12)NC(=O)[C@H](Cc1c[nH]cn1)NC(=O)[C@@H]1CCC(=O)N1 (some centres unmarked) [LD5-mc-vc-PABC-MMAE],"adverse effects (acute toxic symptoms, autonomic effects)","female NOD/SCID mice; 3 and 10 mg/kg IV, 15 minutes, 1 and 2 hours",No significant adverse effects
same,Mortality (death/test),"female NOD/SCID mice; IV 3 mg/kg, 15 min",0/3
same,Mortality (death/test),"female NOD/SCID mice; IV 3 mg/kg, 1 hr",0/3
same,Mortality (death/test),"female NOD/SCID mice; IV 3 mg/kg, 2 hr",0/3
same,Mortality (death/test),"female NOD/SCID mice; IV 3 mg/kg, 24 hr",0/3
same,Mortality (death/test),"female NOD/SCID mice; IV 3 mg/kg, 48 hr",0/3
same,Mortality (death/test),"female NOD/SCID mice; IV 3 mg/kg, 72 hr",0/3
same,Body Weight,"female NOD/SCID mice; IV 3 mg/kg, 72 hr",21 g
same,Body Weight,"female NOD/SCID mice; IV 3 mg/kg, time 0 (pre-dose)",21 g
same,Mortality (death/test),"female NOD/SCID mice; IV 10 mg/kg, 15 min",0/3
same,Mortality (death/test),"female NOD/SCID mice; IV 10 mg/kg, 1 hr",0/3
same,Mortality (death/test),"female NOD/SCID mice; IV 10 mg/kg, 2 hr",0/3
same,Mortality (death/test),"female NOD/SCID mice; IV 10 mg/kg, 24 hr",0/3
same,Mortality (death/test),"female NOD/SCID mice; IV 10 mg/kg, 48 hr",0/3
same,Mortality (death/test),"female NOD/SCID mice; IV 10 mg/kg, 72 hr",0/3
same,Body Weight,"female NOD/SCID mice; IV 10 mg/kg, time 0 (pre-dose)",20 g
same,cytotoxic effects after pre-treatment with triptorelin,MDA-MB-231 [1],reversed
same,total drug released as MMAE,[2],less than 3%
same,total drug released as MMAE,[2]; listed as LHRHD-(mc-vc-PABC)-MMAE,around 3%
same,uptake after silencing the LHRH-R gene,MDA-MB-231 [3],significantly reduced
